Measured values: publication PMC8924211 (Nature Communications, 2022)
Several values for one entry are separate records, joined by “and”; a condition that tells them apart may be missing. Identical values can stand only once.

What was measured:
GAL2R over GAL1R = conditions: cited from earlier work
Source text: In contrast, L^4P contacts with equivalent ECL2 residues with weaker hydrophobicity (L169^ECL2, A170^ECL2, and L172^ECL2) in GAL2R (Fig. 3e, Supplementary Fig. 4b). The structural observation is coincident with our peptide truncation assay.

[1] = target: SNAP-GAL1R (wild type) (human) (UniProt P47211)
[2] = target: SNAP-GAL2R (wild type) (human) (UniProt O43603)
[3] = target: SNAP-GAL1R (wild type) (human) (UniProt P47211); assay: AlphaScreen or HTRF; competition: HEK293 cells with SNAP-GAL1R or SNAP-GAL2R labelled with SNAP-Lumi4-Tb; 50 nM galanin-A2 with increasing concentrations of unlabeled ligand, 1 h at room temperature; Ki by the Cheng-Prusoff equation
[4] = target: SNAP-GAL2R (wild type) (human) (UniProt O43603); assay: as above
[5] = target: SNAP-GAL2R (wild type) (human) (UniProt O43603); remark: listed apart in the source
[6] = target: SNAP-GAL2R (wild type) (human) (UniProt O43603); remark: listed apart in the source
[7] = target: T1, N-terminal-SNAP-tagged GAL2R, wild type (human, UniProt O43603 1-387, Lumi4-Tb on the SNAP tag); assay: AlphaScreen or HTRF; competition binding: HEK293 cells transfected with WT SNAP-tagged receptor and labelled with SNAP-Lumi4-Tb, incubated with 50 nM galanin-A2 and increasing concentrations of the unlabeled ligand, 1 h at room temperature; Ki from IC50 by the Cheng-Prusoff equation; conditions: one partner purified
T1 construct: also called SNAP-GAL2R; GAL2R WT; source: HEK293, transfected, on cells; not shown: SNAP tag, N-terminal, kept
T1 sequence (looked up): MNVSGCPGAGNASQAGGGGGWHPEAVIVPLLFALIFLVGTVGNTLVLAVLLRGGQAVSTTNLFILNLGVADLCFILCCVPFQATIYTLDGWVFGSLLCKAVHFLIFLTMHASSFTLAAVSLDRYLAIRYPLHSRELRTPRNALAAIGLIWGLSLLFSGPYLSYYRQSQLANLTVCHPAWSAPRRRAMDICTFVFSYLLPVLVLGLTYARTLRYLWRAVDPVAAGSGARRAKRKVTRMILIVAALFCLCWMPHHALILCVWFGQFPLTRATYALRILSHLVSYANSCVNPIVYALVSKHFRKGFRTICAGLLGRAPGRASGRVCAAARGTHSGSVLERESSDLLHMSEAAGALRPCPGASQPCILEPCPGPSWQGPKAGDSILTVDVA

[8] = target: T2, N-terminal-SNAP-tagged GAL1R, wild type (human, UniProt P47211 1-349, Lumi4-Tb on the SNAP tag); assay: as above; conditions: one partner purified
T2 construct: also called SNAP-GAL1R; GAL1R WT; source: HEK293, transfected, on cells; not shown: SNAP tag, N-terminal, kept
T2 sequence (looked up): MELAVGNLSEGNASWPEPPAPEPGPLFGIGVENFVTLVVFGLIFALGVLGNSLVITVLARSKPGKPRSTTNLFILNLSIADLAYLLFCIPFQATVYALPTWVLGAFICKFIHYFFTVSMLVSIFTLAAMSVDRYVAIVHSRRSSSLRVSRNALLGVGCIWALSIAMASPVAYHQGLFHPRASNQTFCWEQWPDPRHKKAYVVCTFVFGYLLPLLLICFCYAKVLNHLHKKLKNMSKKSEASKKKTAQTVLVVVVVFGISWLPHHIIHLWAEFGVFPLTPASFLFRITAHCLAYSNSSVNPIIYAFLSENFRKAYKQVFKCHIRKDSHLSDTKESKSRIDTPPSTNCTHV

Molecule: GALP (1–60): galanin-related peptide, galanin homologue; amino acids 9–21 identical to first 13 amino acids of galanin (APAHRGRGGWTLNSAGYLLGPVLHLPQMGDQDGKRETALEILDLWKAIDGLPYSHPPQPS; Galanin-like peptide; UniProt Q9UBC7 25-84, looked up)
- affinity for GAL2R versus GAL1R (GAL2R over GAL1R): higher affinity for GAL2R over GAL1R

Molecule: galanin (1-16, Y9A) (peptide)
- calcium assay EC50 (peptide on WT receptor; HEK293/Gα16 cells) [1]: > 10000 nM
- calcium assay EC50 (peptide on WT receptor; HEK293/Gα16 cells) [2]: > 10000 nM
- Ki [3]: 2880 nM and 2850 nM and 1690 nM
- Ki [4]: > 100000 nM

Molecule: spexin (mature, 14 amino acids) (peptide)
- calcium assay EC50 (spexin) [5]: 327 nM and 178 nM and 81.4 nM

Molecule: ARM1896: galanin segment 2-11 (WTLNSAGYLL; Galanin; UniProt P22466 34-43, looked up, fragment)
- selectivity for GAL1R (GAL2R over GAL1R): low selectivity

Molecule: G1-truncated galanin (2-16) (peptide)
- calcium assay EC50 (peptide on WT receptor; HEK293/Gα16 cells) [1]: 3160 nM and 3440 nM and 3340 nM
- calcium assay EC50 (peptide on WT receptor; HEK293/Gα16 cells) [2]: 50.1 nM and 12.3 nM
- Ki [3]: > 10000 nM
- Ki [4]: 80.1 nM and 42.6 nM and 27 nM

Molecule: galanin (1-13) (peptide)
- calcium assay EC50 (peptide on WT receptor; HEK293/Gα16 cells) [1]: 324 nM and 328 nM and 268 nM
- calcium assay EC50 (peptide on WT receptor; HEK293/Gα16 cells) [2]: 12.8 nM and 14.6 nM and 69 nM
- Ki [3]: 343 nM and 409 nM and 314 nM
- Ki [4]: 41.4 nM and 11.1 nM and 17.8 nM

Molecule: galanin (full length, unlabeled) (peptide)
- calcium assay EC50 (peptide on WT receptor; HEK293/Gα16 cells) [2]: 8.27 nM and 11.6 nM
- calcium assay EC50 (galanin; HEK293/Gα16 cells) [6]: 35.3 nM and 27.2 nM and 64.9 nM

Molecule: galanin (1-16) (peptide)
- calcium assay EC50 (peptide on WT receptor; HEK293/Gα16 cells) [2]: 23.5 nM and 12.5 nM and 12.6 nM
- Ki [4]: 20.1 nM and 22.6 nM and 15.6 nM

B1: Gal (2-16) (peptide)
peptide: WTLNSAGYLLGPHAV
notes: numbers count on: the mature protein
- Ki [7]: 49.9 nM
- Ki [8]: > 10000 nM

B2: Gal (1-13) (peptide)
peptide: GWTLNSAGYLLGP
notes: as for B1
- Ki [7]: 23.5 nM
- Ki [8]: 356 nM

B3: Gal (1-16, Y9A) (peptide)
peptide: GWTLNSAGALLGPHAV
notes: as for B1
- Ki [7]: > 100000 nM
- Ki [8]: 2480 nM
